Article PMC3985815

Columns and labels:
Assay in all cases: purified protein
purified protein [1] = substrate: Nc1ccn([C@H]2C[C@H](OP(=O)(O)O)[C@@H](COP(=O)(O)O)O2)c(=O)n1; conditions: 25 mM HEPES, 250 mM KCl, pH 7.5, 30 °C
purified protein [2] = substrate: Nc1ncnc2c1ncn2[C@H]1C[C@H](OP(=O)(O)O)[C@@H](COP(=O)(O)O)O1; conditions: 25 mM HEPES, 250 mM KCl, pH 7.5, 30 °C
purified protein [3] = substrate: Nc1ncnc2c1ncn2[C@@H]1O[C@H](COP(=O)(O)O[C@H]2[C@@H](O)[C@H](n3cnc4c(N)ncnc43)O[C@@H]2COP(=O)(O)O)[C@@H](O)[C@H]1O; conditions: 50 mM HEPES, 250 mM KCl, 5.0 mM MgCl2, pH 7.5
purified protein [4] = substrate: Cc1cn([C@H]2C[C@H](OP(=O)(O)O)[C@@H](COP(=O)(O)O)O2)c(=O)[nH]c1=O; conditions: 25 mM HEPES, 250 mM KCl, pH 7.5, 30 °C
purified protein [5] = substrate: O=c1ccn([C@H]2C[C@H](OP(=O)(O)O)[C@@H](COP(=O)(O)O)O2)c(=O)[nH]1; conditions: 25 mM HEPES, 250 mM KCl, pH 7.5, 30 °C
purified protein [6] = substrate: O=c1[nH]cnc2c1ncn2[C@H]1C[C@H](OP(=O)(O)O)[C@@H](COP(=O)(O)O)O1; conditions: 25 mM HEPES, 250 mM KCl, pH 7.5, 30 °C
purified protein [7] = substrate: Nc1ncnc2c1ncn2[C@@H]1O[C@H](COP(=O)(O)O)[C@@H](OP(=O)(O)O)[C@H]1O; conditions: 25 mM HEPES, 250 mM KCl, pH 7.5, 30 °C
purified protein [8] = substrate: CNc1ncnc2c1ncn2[C@@H]1O[C@H](COP(=O)(O)O)[C@@H](OP(=O)(O)O)[C@H]1O; conditions: 25 mM HEPES, 250 mM KCl, pH 7.5, 30 °C
purified protein [9] = substrate: Nc1nc2c(ncn2[C@H]2C[C@H](OP(=O)(O)O)[C@@H](COP(=O)(O)O)O2)c(=O)[nH]1; conditions: 25 mM HEPES, 250 mM KCl, pH 7.5, 30 °C

B1: Cv1693 (Chromobacterium violaceum ATCC 12472) (protein)
chain: MANIDLHFHSRTSDGALTPTEVIDRAAARAPALLALTDHDCTGGLAEAAAAAARRGIPFLNGVEVSVSWGRHTVHIVGLGIDPAEPALAAGLKSIREGRLERARQMGASLEAAGIAGCFDGAMRWCDNPEMISRTHFARHLVDSGAVKDMRTVFRKYLTPGKPGYVSHQWASLEDAVGWIVGAGGMAVIAHPGRYDMGRTLIERLILDFQAAGGQGIEVASGSHSLDDMHKFALHADRHGLYASSGSDFHAPGEGGRDVGHTEDLPPICRPIWRELEARILRPAD
Question: What does the source list for B1?
Answer: Km (purified protein [1]): 26 ± 3 µM; kcat (purified protein [1]): 9.4 ± 0.3 s⁻¹; kcat/Km (purified protein [1]): 360000 ± 50000 M⁻¹ s⁻¹; Km (purified protein [2]): 10.2 ± 0.9 µM; kcat (purified protein [2]): 7.1 ± 0.2 s⁻¹; kcat/Km (purified protein [2]): 700000 ± 60000 M⁻¹ s⁻¹; Km (purified protein [3]): 1.6 ± 0.2 µM; kcat (purified protein [3]): 0.05 ± 0.01 s⁻¹; kcat/Km (purified protein [3]): 32000 ± 3000 M⁻¹ s⁻¹; Km (purified protein [4]): 9.3 ± 1.0 µM; kcat (purified protein [4]): 3.3 ± 0.1 s⁻¹; kcat/Km (purified protein [4]): 360000 ± 40000 M⁻¹ s⁻¹; Km (purified protein [5]): 29 ± 4 µM; kcat (purified protein [5]): 5.2 ± 0.2 s⁻¹; kcat/Km (purified protein [5]): 180000 ± 20000 M⁻¹ s⁻¹; Km (purified protein [6]): 22 ± 3 µM; kcat (purified protein [6]): 4.3 ± 0.2 s⁻¹; kcat/Km (purified protein [6]): 190000 ± 30000 M⁻¹ s⁻¹; Km (purified protein [7]): 15.5 ± 2.4 µM; kcat (purified protein [7]): 22 ± 1 s⁻¹; kcat/Km (purified protein [7]): 1.4e+06 ± 200000 M⁻¹ s⁻¹; Km (purified protein [8]): 5.4 ± 1.0 µM; kcat (purified protein [8]): 11.6 ± 0.4 s⁻¹; kcat/Km (purified protein [8]): 2.1e+06 ± 400000 M⁻¹ s⁻¹; Km (purified protein [9]): 5.2 ± 0.4 µM; kcat (purified protein [9]): 4.2 ± 0.1 s⁻¹; kcat/Km (purified protein [9]): 790000 ± 60000 M⁻¹ s⁻¹
